# Measurements from patent US20040180051A1 (published 2004).
# Target: T1, human tissue factor (human TF) on human bladder carcinoma cells J82 (human, UniProt P13726 33-295)
# T1 construct: whole, on cells; Target of the cell ELISA; also called the antigen
# Experiment: cell ELISA on fixed J82 cells;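 further: measures antigen binding in a cell ELISA on J82 cells grown one day in 96-well plates and fixed with 4% paraformaldehyde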
row,Binder,binding result
1,"humanized H chain version “a” combined with a chimeric L chain (antibody, V domains shown, expressed in COS-7) VH: QVQLLESGAVLARPGTSVKISCKASGFNIKDYYMHWVKQRPGQGLEWIGGNDPANGHSMYDPKFQGRAKLTAATSASIAYLEFSSLTNEDSAVYYCARDSGYAMDYWGQGTLVTVSS VL: DIKMTQSPSSMYASLGERVTITCKASQDIKSFLSWYQQKPWKSPKTLIYYATSLADGVPSRFSGSGSGQDYSLTINNLESDDTATYYCLQHGESPYTFGGGTKLEIK",binds
2,"humanized H chain version “b” combined with a chimeric L chain (antibody, V domains shown, expressed in COS-7; also called b-ch) VH: QVQLLESGAVLARPGTSVKISCKASGFNIKDYYMHWVKQRPGQGLEWIGGNDPANGHSMYDPKFQGRVTITADTSTNTAYMELSSLRSEDTAIYYCARDSGYAMDYWGQGTLVTVSS VL: DIKMTQSPSSMYASLGERVTITCKASQDIKSFLSWYQQKPWKSPKTLIYYATSLADGVPSRFSGSGSGQDYSLTINNLESDDTATYYCLQHGESPYTFGGGTKLEIK",binds
3,"humanized H chain version “d” combined with a chimeric L chain (antibody, V domains shown, expressed in COS-7; also called d-ch) VH: QVQLLESGAVLARPGTSVKISCKASGFNIKDYYMHWVKQRPGQGLEWIGGNDPANGHSMYDPKFQGRVTITADESTSTAYMELSSLRSEDSAVYFCARDSGYAMDYWGQGTLVTVSS VL: DIKMTQSPSSMYASLGERVTITCKASQDIKSFLSWYQQKPWKSPKTLIYYATSLADGVPSRFSGSGSGQDYSLTINNLESDDTATYYCLQHGESPYTFGGGTKLEIK",binds
4,"humanized H chain version “i” combined with a chimeric L chain (antibody, V domains shown, expressed in COS-7; also called i-ch) VH: QVQLLESGAVLARPGTSVKISCKASGFNIKDYYMHWVKQRPGQGLEWIGGNDPANGHSMYDPKFQGRVTITADTSTSTVFMELSSLRSEDTAVYYCARDSGYAMDYWGQGTLVTVSS VL: DIKMTQSPSSMYASLGERVTITCKASQDIKSFLSWYQQKPWKSPKTLIYYATSLADGVPSRFSGSGSGQDYSLTINNLESDDTATYYCLQHGESPYTFGGGTKLEIK",binds
5,"humanized H chain version “e” combined with a chimeric L chain (antibody, V domains shown, expressed in COS-7; also called e-ch) VH: QVQLLESGAVLARPGTSVKISCKASGFNIKDYYMHWVKQRPGQGLEWIGGNDPANGHSMYDPKFQGRVSITADESTKIAYMELNSLRSEDTAVYFCARDSGYAMDYWGQGTLVTVSS VL: DIKMTQSPSSMYASLGERVTITCKASQDIKSFLSWYQQKPWKSPKTLIYYATSLADGVPSRFSGSGSGQDYSLTINNLESDDTATYYCLQHGESPYTFGGGTKLEIK",binds
6,"humanized L chain version “b” combined with a chimeric H chain (antibody, V domains shown, expressed in COS-7; also called ch-b) VH: EVQLQQSGTNLVRPGALVKLSCKGSGFNIKDYYMHWVKQRPEQGLEWIGGNDPANGHSMYDPKFQGKASITADTSSNTAYLQLSSLTSEDTAVYFCARDSGYAMDYWGQGTSVTVSS VL: DIQMTQSPSSLSASVGDRVTITCKASQDIKSFLSWYQQKPGKAPKLLIYYATSLADGVPSRFSGSGSGTDYTLTISSLQPEDFATYYCLQHGESPYTFGGGTKVEIK",binds
7,"H chain humanized version b/L chain humanized version b antibody (antibody, V domains shown, also called b-b) VH: QVQLLESGAVLARPGTSVKISCKASGFNIKDYYMHWVKQRPGQGLEWIGGNDPANGHSMYDPKFQGRVTITADTSTNTAYMELSSLRSEDTAIYYCARDSGYAMDYWGQGTLVTVSS VL: DIQMTQSPSSLSASVGDRVTITCKASQDIKSFLSWYQQKPGKAPKLLIYYATSLADGVPSRFSGSGSGTDYTLTISSLQPEDFATYYCLQHGESPYTFGGGTKVEIK",binds
8,"humanized H chain version “b3” combined with the humanized L chain version “b” (antibody, V domains shown, expressed in COS-7; also called b3-b) VH: QVQLLESGAVLARPGTSVKISCKASGFNIKDYYMHWVRQAPGQGLEWIGGNDPANGHSMYDPKFQGRVTITADTSTNTAYMELSSLRSEDTAIYYCARDSGYAMDYWGQGTLVTVSS VL: DIQMTQSPSSLSASVGDRVTITCKASQDIKSFLSWYQQKPGKAPKLLIYYATSLADGVPSRFSGSGSGTDYTLTISSLQPEDFATYYCLQHGESPYTFGGGTKVEIK",binds
9,"humanized L chain version “a” combined with a chimeric H chain (antibody, V domains shown, expressed in COS-7) VH: EVQLQQSGTNLVRPGALVKLSCKGSGFNIKDYYMHWVKQRPEQGLEWIGGNDPANGHSMYDPKFQGKASITADTSSNTAYLQLSSLTSEDTAVYFCARDSGYAMDYWGQGTSVTVSS VL: DIQMTQSPSSLSASVGDRVTITCKASQDIKSFLSWYQQKPGKAPKLLIYYATSLADGVPSRFSGSGSGTDFTLTISSLQPEDFATYYCLQHGESPYTFGGGTKVEIK",binds
10,"humanized L chain version “c” combined with a chimeric H chain (antibody, V domains shown, expressed in COS-7) VH: EVQLQQSGTNLVRPGALVKLSCKGSGFNIKDYYMHWVKQRPEQGLEWIGGNDPANGHSMYDPKFQGKASITADTSSNTAYLQLSSLTSEDTAVYFCARDSGYAMDYWGQGTSVTVSS VL: DIQMTQSPSSLSASVGDRVTITCKASQDIKSFLSWYQQKPGKAPKLLIYYATSLADGVPSRFSGSGSGTDYTLTISSLQPEDIATYYCLQHGESPYTFGGGTKVEIK",binds
11,"humanized H chain version “d” combined with the humanized L chain version “b” (antibody, V domains shown, expressed in COS-7; also called d-b) VH: QVQLLESGAVLARPGTSVKISCKASGFNIKDYYMHWVKQRPGQGLEWIGGNDPANGHSMYDPKFQGRVTITADESTSTAYMELSSLRSEDSAVYFCARDSGYAMDYWGQGTLVTVSS VL: DIQMTQSPSSLSASVGDRVTITCKASQDIKSFLSWYQQKPGKAPKLLIYYATSLADGVPSRFSGSGSGTDYTLTISSLQPEDFATYYCLQHGESPYTFGGGTKVEIK",binds
12,"humanized H chain version “g” combined with the humanized L chain version “b” (antibody, V domains shown, expressed in COS-7; also called g-b) VH: QVQLLESGAVLARPGTSVKISCKASGFNIKDYYMHWVKQRPGQGLEWIGGNDPANGHSMYDPKFQGKATLTADESSSTAYMQLSSLRSEDSAVYSCARDSGYAMDYWGQGTLVTVSS VL: DIQMTQSPSSLSASVGDRVTITCKASQDIKSFLSWYQQKPGKAPKLLIYYATSLADGVPSRFSGSGSGTDYTLTISSLQPEDFATYYCLQHGESPYTFGGGTKVEIK",binds

# Other lines, results leading:
row,binding result,Binder
1,binds,"humanized H chain version “d3” combined with the humanized L chain version “b” (antibody, V domains shown, expressed in COS-7; also called d3-b) VH: QVQLLESGAVLARPGTSVKISCKASGFNIKDYYMHWVRQAPGQGLEWIGGNDPANGHSMYDPKFQGRVTITADESTSTAYMELSSLRSEDSAVYFCARDSGYAMDYWGQGTLVTVSS VL: DIQMTQSPSSLSASVGDRVTITCKASQDIKSFLSWYQQKPGKAPKLLIYYATSLADGVPSRFSGSGSGTDYTLTISSLQPEDFATYYCLQHGESPYTFGGGTKVEIK"
2,binds,"humanized H chain version “b” combined with the humanized L chain version “b2” (antibody, V domains shown, expressed in COS-7; also called b-b2) VH: QVQLLESGAVLARPGTSVKISCKASGFNIKDYYMHWVKQRPGQGLEWIGGNDPANGHSMYDPKFQGRVTITADTSTNTAYMELSSLRSEDTAIYYCARDSGYAMDYWGQGTLVTVSS VL: DIQMTQSPSSLSASVGDRVTITCKASQDIKSFLSWYQQKPEKAPKSLIYYATSLADGVPSRFSGSGSGTDYTLTISSLQPEDFATYYCLQHGESPYTFGGGTKVEIK"
3,binds,"H chain humanized version i/L chain humanized version b2 antibody (antibody, V domains shown, also called i-b2) VH: QVQLLESGAVLARPGTSVKISCKASGFNIKDYYMHWVKQRPGQGLEWIGGNDPANGHSMYDPKFQGRVTITADTSTSTVFMELSSLRSEDTAVYYCARDSGYAMDYWGQGTLVTVSS VL: DIQMTQSPSSLSASVGDRVTITCKASQDIKSFLSWYQQKPEKAPKSLIYYATSLADGVPSRFSGSGSGTDYTLTISSLQPEDFATYYCLQHGESPYTFGGGTKVEIK"
4,binds,"humanized H chain version “b” combined with the humanized L chain version “c” (antibody, V domains shown, The construction of its expression plasmid is not described) VH: QVQLLESGAVLARPGTSVKISCKASGFNIKDYYMHWVKQRPGQGLEWIGGNDPANGHSMYDPKFQGRVTITADTSTNTAYMELSSLRSEDTAIYYCARDSGYAMDYWGQGTLVTVSS VL: DIQMTQSPSSLSASVGDRVTITCKASQDIKSFLSWYQQKPGKAPKLLIYYATSLADGVPSRFSGSGSGTDYTLTISSLQPEDIATYYCLQHGESPYTFGGGTKVEIK"
5,binds,"humanized H chain version “b” combined with the humanized L chain version “a” (antibody, V domains shown, expressed in COS-7; also called b-a) VH: QVQLLESGAVLARPGTSVKISCKASGFNIKDYYMHWVKQRPGQGLEWIGGNDPANGHSMYDPKFQGRVTITADTSTNTAYMELSSLRSEDTAIYYCARDSGYAMDYWGQGTLVTVSS VL: DIQMTQSPSSLSASVGDRVTITCKASQDIKSFLSWYQQKPGKAPKLLIYYATSLADGVPSRFSGSGSGTDFTLTISSLQPEDFATYYCLQHGESPYTFGGGTKVEIK"
6,binds,"humanized L chain version “b1” combined with a chimeric H chain (antibody, V domains shown, expressed in COS-7; also called ch-b1) VH: EVQLQQSGTNLVRPGALVKLSCKGSGFNIKDYYMHWVKQRPEQGLEWIGGNDPANGHSMYDPKFQGKASITADTSSNTAYLQLSSLTSEDTAVYFCARDSGYAMDYWGQGTSVTVSS VL: DIQMTQSPSSLSASVGDRVTITCKASQDIKSFLSWFQQKPGKSPKTLIYYATSLADGVPSRFSGSGSGTDYTLTISSLQPEDFATYYCLQHGESPYTFGGGTKVEIK"
7,binds,"H chain humanized version i/L chain humanized version b antibody (antibody, V domains shown) VH: QVQLLESGAVLARPGTSVKISCKASGFNIKDYYMHWVKQRPGQGLEWIGGNDPANGHSMYDPKFQGRVTITADTSTSTVFMELSSLRSEDTAVYYCARDSGYAMDYWGQGTLVTVSS VL: DIQMTQSPSSLSASVGDRVTITCKASQDIKSFLSWYQQKPGKAPKLLIYYATSLADGVPSRFSGSGSGTDYTLTISSLQPEDFATYYCLQHGESPYTFGGGTKVEIK"
8,binds,"humanized H chain version “j” combined with the humanized L chain version “b” (antibody, V domains shown, expressed in COS-7; also called j-b) VH: QVQLLESGAVLARPGTSVKISCKASGFNIKDYYMHWVKQRPGQGLEWIGGNDPANGHSMYDPKFQGRVTFTADTSANTAYMELRSLRSADTAVYYCARDSGYAMDYWGQGTLVTVSS VL: DIQMTQSPSSLSASVGDRVTITCKASQDIKSFLSWYQQKPGKAPKLLIYYATSLADGVPSRFSGSGSGTDYTLTISSLQPEDFATYYCLQHGESPYTFGGGTKVEIK"
9,binds,"humanized H chain version “i” combined with the humanized L chain version “b1” (antibody, V domains shown, expressed in COS-7; also called i-b1) VH: QVQLLESGAVLARPGTSVKISCKASGFNIKDYYMHWVKQRPGQGLEWIGGNDPANGHSMYDPKFQGRVTITADTSTSTVFMELSSLRSEDTAVYYCARDSGYAMDYWGQGTLVTVSS VL: DIQMTQSPSSLSASVGDRVTITCKASQDIKSFLSWFQQKPGKSPKTLIYYATSLADGVPSRFSGSGSGTDYTLTISSLQPEDFATYYCLQHGESPYTFGGGTKVEIK"
10,binds,"humanized L chain version “b2” combined with a chimeric H chain (antibody, V domains shown, expressed in COS-7; also called ch-b2) VH: EVQLQQSGTNLVRPGALVKLSCKGSGFNIKDYYMHWVKQRPEQGLEWIGGNDPANGHSMYDPKFQGKASITADTSSNTAYLQLSSLTSEDTAVYFCARDSGYAMDYWGQGTSVTVSS VL: DIQMTQSPSSLSASVGDRVTITCKASQDIKSFLSWYQQKPEKAPKSLIYYATSLADGVPSRFSGSGSGTDYTLTISSLQPEDFATYYCLQHGESPYTFGGGTKVEIK"
